Measured values reported in the nanobody polyreactivity screen of Harvey et al. (2022).

Assay: yeast display, Sf9 membrane polyspecificity reagent, FACS + sequencing; frameworks hold sequencing errors
In short: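 A synthetic nanobody library was expressed on Saccharomyces cerevisiae BJ5465 by galactose induction for 36–48 hours. The library was stained for 1 hour at 4 °C with 10% biotinylated, detergent-solubilized Sf9 membrane reagent and enriched with streptavidin microbeads before FACS. Low and high (top ~1%) gates were set on anti-HA fluorescence for expression and streptavidin fluorescence for reagent binding, and each polyreactivity label reflects the gate of origin.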

Question: Which “polyreactivity (PSR sort gate)” value does the source give for “QVRLVESGGGLVQAGGSLRLSCAASGRIFYRYAIGWYRQAPGKERELVAAISSSGGSTYYADSVKGRFTISRDNAKNTVYLQMNSLKPEDTAVYYCAADAGSINSGYDYWGQGTQVTVSS” here?
Answer: low polyreactivity

Question: Which “polyreactivity (PSR sort gate)” value does the source give for “QVRLVESGGGLVQAGGSLRLSCAASGRTFRIYAMGWYRQAPGKERELVAAIRWSGGTTYYADSVKGRFTISRDNAKNTVYLQMNSLKPEDTAVYYCNTNSYYEDDYWGQGTQVTVSS” here?
Answer: high polyreactivity

Question: For “QVRLVESGGGLVQAGGSLRLSCAASGSTFKTYAMGWYRQAPGKERELVAAISAGGGSTYYADSVKGRFTISRDNAKNTVYLQMYSLKPEDTAVYYCAAAYIYAGWDYEYWGQGTQVTVSS”, which “polyreactivity (PSR sort gate)” value is on record?
Answer: low polyreactivity

Question: With “QVWLQESGRGLLQACGSLRLSCAASGTISRDIFMGWYRQAPGKEREFVATIAQGGITNYADSVKGRFTISRDNAKNTVYLQMNSVKPGDTAVYFCAARDGNCYWFYYWGQGTQVTVSS” as the sequence, how does the “polyreactivity (PSR sort gate)” value read?
Answer: high polyreactivity

Question: With “QYQLGESGGGLVQAGGSLRLSCAASGRIFTWNAMGWYRQAPGKERELVAAIRRGGGTYADSVKGRYTISRDNGKNTFYLQMHSLKPEDTAVYYCAATSGYYAMNYWGQGTQVTVSS” as the sequence, how does the “polyreactivity (PSR sort gate)” value read?
Answer: high polyreactivity

Question: For “QYQLVESGGCLVQAGGTLRLRCAATGFTFKSYAMGWYRHAHGKAWELVAAISNRGGSTYYADSVKGRFTISRDNAKNSVYLQINSLKPEDNAVYYCATQYYVRPFDYWGQGTQVTVSS”, which “polyreactivity (PSR sort gate)” value is on record?
Answer: high polyreactivity

Question: With “QYQLVESGGGLVQAGGSLRLSCAASGRIFLVYVMGWYRQAPGKERELVADITFSGGSTYYADSVKGRFTISRDNEKNNVYLQMNSLKPEYTAVYYCAAATWSFLDYWGQGTQVTVSS” as the sequence, how does the “polyreactivity (PSR sort gate)” value read?
Answer: high polyreactivity

Question: With “RVQLQESGGGLVQAGGTLRLSCAASGTIFIRGDMGWYRQAPGKEREFVATIDTGSNTYYADSEKGRFTISRDNAKKAVYLQMNCLKPGDTAVYYCVVDYQLSGRLWDWGQGTQVTLSS” as the sequence, how does the “polyreactivity (PSR sort gate)” value read?
Answer: low polyreactivity

Question: For “RVQLVESGGGLVQAGGSHRLSCAASGRIFKNYAIGWYRQAPGKQRELVASITIGSTTYAESEKGRFTISRDNAKNTVYLKMNSLKREDTAVYYCAARRPRGFQGPNPWGYYYWGQGTQVTVSS”, which “polyreactivity (PSR sort gate)” value is on record?
Answer: high polyreactivity

Question: With “RVQLVESGGGLVQAGGSLRLSCAASGSIFLIYAMGWYRQAPGKERELVAAISTGDSTYYADSVKGRFTISRDNAKNTVYLQMNSLKPEDTAVYYCAADTYSYEVPWWSAGMDYWGQGTQVTVSS” as the sequence, how does the “polyreactivity (PSR sort gate)” value read?
Answer: high polyreactivity
